Results: the nanobody polyreactivity screen of Harvey et al. (2022)

Experiment: yeast display, Sf9 membrane polyspecificity reagent, FACS + sequencing; frameworks hold sequencing errors
Method in brief: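 Nanobodies from a synthetic yeast display library (Saccharomyces cerevisiae BJ5465), induced 36–48 hours with galactose, were stained 1 hour at 4 °C with 10% biotinylated, detergent-solubilized Sf9 membrane reagent, enriched on streptavidin microbeads, then FACS-sorted. Anti-HA (expression) and streptavidin (reagent binding) fluorescence set low and high (top ~1%) gates. Polyreactivity labels come from the gate of origin. Genes were colony-PCR amplified, MiSeq 2 × 250 sequenced and filtered by CDR length.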

Row | Sequence | polyreactivity (PSR sort gate)
1 | QVQHVESGGGLVQAGGSLRLSCAASGRTFDWYAMGRYRQAPGKEMELVAAISSGGSTYYADSVKGRFTISRDNAKNTVYLQMNSLKPEDTAVYYCAAEWHYIYAYDYWGQGTQVTVSS | low polyreactivity
2 | QVQLVESGGGLVQAGGSLRLSCAASGFIFGSYALGWDRQAPGKEWELVAAINYDGGSTYYADSVKGRFTISRDHAKNTVYLQMNSLKPEDTAVYYCAADLYYTHMDYWGQGTQVTVSS | low polyreactivity
3 | QVQLVESGGGLVQAGGSLRLSCAASGNIFLSYAMGWYRQAPGKERDLVAGISASGGRTYYADSVKGRFTISRDNAKNTVYFQMNSLKPEDTALYYCNAGWGVVIRRYPTYDYWGQGTQVTVSS | high polyreactivity
4 | QVQLVESGGGLVQAGGSLRLSCAASGFIFRLYTMGLYRQAPGKERELVARITRGDSTNYADSVKGRFTISRDNAQNTVYLQMNCLYPEDTAVYYCAKLHRGLPYYSFYRGYYYWGQVTQVTVSS | low polyreactivity
5 | QVQLVESGGRLVKAGGSLRLSCAASGRTFSSYAMGWYRHAPGKERELVAAISSGGSTYYADSVKGRFTISRDNAKNTVYILMNSQIPEDTAVYYCNRRLYYKIGRGFSYYWGQGTQVTVSS | high polyreactivity
6 | QVQLVESGGGLVQAGGRLRLSCAASGRTLATFAMGWSRQAPGKERELVAAITFSGGGSTYYADSVKGRFTISRDNAKNTVYLQMKSLKPEDTADYYCAAGPYYSLFGYGSRDNYRYYYWGQGTQVTVSS | high polyreactivity
7 | QVQLVETGGGLVQAGGSLRLSCAASGSIFWYYAMGWYRQAPGKERELVAAISAYGSSTYYADSVKGRFTISRDNAKNTVYLQMNSLKPEDTAVYYCAATYILYNDWLYHYFPEEYDYWGQGTQVTVSS | low polyreactivity
8 | QVQLVESGGGLVQAGGSLRFRCAASGFTFGHYAIVWYRQAPGKERELVAAISKSGTRTYYADSVKGRFTISRDNAKNTVYLQMTSLKPEDTAVYYCATTAYNGYDYWGQGTQVTVSS | high polyreactivity
9 | QVQLVDSGGGLVQAGGSLRLSCDASGLIFFFYAMRWYRQAPGKERELVAAISDEGVSTDYADSVKGRFTISRDNAKNTVYLQMNSLKPEDTAVYYCAAKTERVYPWFSFGYWGQGTQVTVSS | low polyreactivity
10 | QVQLVESGGGLVQAGGSLRLSCAASGNIFLYYAMGWYRQAPGKERELVADIDSSGASTYYADSVKGRFTISRDNAKNTVYLQMNSLKPEDTAVYNCAARAERVREYNYWGQGTQVTVSS | low polyreactivity
11 | QVQLVESGGGLVQAGGRLRLSCAASGSTFKIYAMGWYRQAPGKERELVARITGRGGSTYYADSVKGRFTISRDNAKNTVYLQLNSLKPEDSAVYYCAARVYTYYYDLHKRFYWGHGTQVTVSS | high polyreactivity
12 | QVQLVESGGGLVQAGGSLRLSCAASGRIFNAYAMGWYRQAPGKERELVAAISSIGGRTYYADSVKGRFTISRDNAKNTDYLQMNSLKPEDTAVYYCAASRRSRQYRYDYWGQGTQVTVSS | high polyreactivity
13 | QVQLVESGGGLVQAGGSLRLSCAASGSTFPDYVMGWYRQAPGKERELVAAISSIGGSTYYADSVKGRFTISRDKAKNTVYLQMNSLKPEDTAVYYCAAENSYFYPFDYWGQGTQVTVSS | low polyreactivity
14 | QVQLVESGGGLVQAGGSLRIICAASGRIFSNYAMGWYRQAPGKERELVAAITYSTSRTYYADSVKGRFTISRDNAKNTVYLHMNSLKPEDTAVDYCAAGRGPYYRSRTPLYYWGQGTQVTVSS | high polyreactivity
15 | QVQLVESGGGLVQAGGSLRLSCAASGITLLYNAMGWYRQAPGKERELVAGITGRGGSTYYADSVKGRFTISRDNAKNTVSLQMNSLKPEDNAVYYCAATTDYRYVGRIVIRDDHWGQGTQVTVSS | low polyreactivity
16 | QVQLVESGGGLVQAGGSLRLSCAASGFTFVYKDMGWYRQAPGKEREFVAAISSGGSTYYADSVKGRFTISRDNAKNTVYLQMNSLKPEDTAVYYCARRNPGPKHARYGYWGQGTQVNVSS | high polyreactivity
17 | QVQLVDSVGGLVQAGGSLRLSCAASGSIFGVYAKGWYRQAPGKERELVAAIDESGGSTFYADSVKGRFTISRDNAKNTVYLQMNSLKPEDTAVYYCLVFREDSGPGDYYYWGQGTQVTVSS | low polyreactivity
18 | QVQLVESGGGLVQARGSHRLSCAASGSIFVINAMGWYRQAPGKERELVAAISYSGTGTYFADSVKGRFTISRDNAKNTVYLQMNSLKPEDTAVYYCAADYYYRYRIYDYWGQGTQVTVSS | low polyreactivity
19 | QVQLVESGGGLVQAGGSLRVSCAASGIFPAYDMGWYRQAPGKDRELVASISADSGSTHYADSVKGRFTISRDNAKNTVYFQMNSLKPEDTAVYYCAADLGYRTGDYYWGQGTQVTVSS | low polyreactivity
20 | QVQLVESGGGLVQAGGSLRLSCAASGLTFGTNAMGWYIQAPGKERELVAAISTSSGSTYYADSVKGRFTISRDNAKNTVYLQMNSLKPEDTAVYYCAAVTVTKLSYYRYYYWGQGTQVTVSS | low polyreactivity
21 | QVQLVESGGGLVQAGGSLRLSCAASGLIFRPYTMGWYRQAPGKERELVATISGSGASTNYADSVKGRFTISRDNAKNTVYLQMNSLKPEDTAVYYCKGRSYSRMYYWGQGTQVTVSS | high polyreactivity
22 | QVQLVESGGGLVQAGGSLRLSCAASGRIFYANAMGWYRQAPGKERELVAAISSGGSTYYADSVKGRFTISRDNANNTVYLQMNSLKPEDTAVYYFAASTVGQTFSYYVDTYDYWGQGTQVTVSS | low polyreactivity

Row | Sequence | polyreactivity (PSR sort gate)
23 | QVQLVESGGGLVQAGGSLRLTSAGSGGILPKNAMGWSRQAPGKERELVADISTRGTSTYYADSVKGRFTISRDIAKNTVYLQMNSVKPEVTAVYYCANCRDYIGYDYWGQGSQVTVSS | low polyreactivity
24 | QVQLQESGGSLVQAGGSLRLSCAASGNILVLPHGLVSPGAERELVATITGGSITYYADSVKGRFTISRDNAKNTVYLQMNSLKPGDTDVYYCAVINIYHRPHPYWGQGTLVTVSS | high polyreactivity
25 | QVQLVESGGGLVQAGGSLRLSSAASGGIFFYNTMGWYRQAPGKERELVAAITTNGDSTYYADSVKGRFTISRDTAKYTVYLQMNSLKPEDTAVYYCAAGRRWARWLFPSRYDYWGQGTQVTVSS | low polyreactivity
26 | QVQLVESGGGLVQAGGSLRLSCAASGIIFTVYVMGWYRQAPGKERELVAGITFSTSSTYYADSVKGRFTISRDNAKNTVYLQMNSLKPEDTAVYYCNKDALQTAFDYWGQGTQVTVSS | low polyreactivity
27 | QVQLVESGGGLVQAGGSLRLSCAASGSIFLTYAMGWYRQAPGKERELVAAITDSDGSTSYADSVKGRFTISRDNAKNTVYLQMNSLKPEDTAVYYCAKDFPGRRPPKDPSAFYYWGQGTQVTVSS | low polyreactivity
28 | QVQLQESGGGLVQAGGSLLSCAASGTISYYREMGSYRQAPGKERELVAGIGVGTITYYADSVKGRFTISRDNAKKTVFLQMNSLNPEDTAVYFCGDHIDGNDSHAYWGQGTQVTVSS | low polyreactivity
29 | QVQLVESGGGLVQAGGSLRLICAASGRTFGRYAMGWYRQAPGKERELVADIDYGGGSTYYADSEKGRFTISRDNAKNTVYLQMNSLKPEDTAVYYCNARRDIGWGYHMDYWGQGTQVTVSS | high polyreactivity
30 | QVQLVESRGGLVQAGGSLRLSCAASGFTFFVYPMGWYRQAAGKERELVAVITSGGTTNYADSVKGRFTISRDNAKNTVYLQMNSLIPEDTAVYYCATDNGGIPKYVPYDYWGQGTQGTVSS | high polyreactivity
31 | HVQLVESGGGLVQAGGSLRLSCAASGRIFRKYAMGWYRQAPGKERELVAVITGSAGSTYYADSVKGRFTISRDNAKNTVYLQMNSLKPEDTAVYYCAKVSTSWDYGIYPFDEGYYWGQGTKVTVSS | low polyreactivity
32 | QVQLVESGGGLVQAGGSLRLSCAASGRTLFRYAMGWYRQAPGKERELVAAISRSGGTTYYADSVKGRFTISRDNAKNTVYLQMNSLKPEDTAVYYCAARFVLRRDYGYWGQGTQVTVSS | high polyreactivity
33 | QVHLVESGGGLVQAGGILRLSCAASGFTFIHYGMGWYRQAPGKERELVAAISSRGGRTYYADSVKGRFTISRDNAKNTVYLQMNSLKPEDTAVYYCNRDYAVISYGEYDSWGQGTEVTVSS | high polyreactivity
34 | QVQLVESGGGLVQAGGSLRLSCASSGRTFTYYTMGWYRQAPGKERELVAAISSSGGSTYYADSVKGRFTISRDNAKNTVYLQMNSLKPEDTAVYYCAAVRGRLLPPYGYWGQGTQVTVSS | high polyreactivity
35 | QVQLVESGGGLVQAGGSLRLSCAASGFTFTRNVMGWYRQAPGKERELVAAINASGGRTYYADSVKGRFTISRDNAKNTVYLQMNSLKPEDTAVYYCAARDTQLGGSRGGSWGQGTQVTVSS | high polyreactivity
36 | QVQLVESGAGLVQAAASLRLSCAASGRTFIYYSMGWYRQAPGKEREFVAIISWNGTSTNYADSVKGRFTISRDNAKNTVYLQMNSLKPEDTAVYYCAASFWTDYYRYDYWGQGTQVTVSS | low polyreactivity
37 | QVQLVESGGGLVQAGGSLRLSCAASGRIFGVNAMGWYRQAPGKERELVAGITTSGGSTYYADSVKGRFTISRDNAKNTVYLQMNSLKPEDTAVYYFNGLTRRWYSLRSYDYWGQGTQVTVSW | high polyreactivity
38 | QVQLVESGGGLVQAGGSLRLSCAASGSTFVVNDMGWYRQAPGKDRELVASITAGGSTYYADSVKGRFTISRDNAKNTVNLQMNSLKPEDTAVYYCAKVQDRAYLPHQRGRERDYDYWGQGTQVTVSS | low polyreactivity
39 | QVQLVESGAGLVQAGGSLRLSCAASGRIFRVYAMGWYRQAPGQERELVAAITSGGTTYADSVKGRLTISRDNAKKTVYLQMNILKPEDTAVYYCAARYYIHRGYDYDYWGQGTQVTVSS | high polyreactivity
40 | QVQLVESGGGLVQAGGSIRLSCAASGRIFVRNAMGWYRQAPGKEREMVAAISWSSGGTYYADSVKGRFTISRDNAKNTVYLQMNSLKPEDTAVYYCNADPSRAGDYWGQGTQVTVSS | low polyreactivity
41 | QVQLVESGGGLVHAGGSLRLSCAASGFIFPGNAMGWYIQAPGKERDLVAAISNSGSRTYYADSVKGRFTISRDNAKNTVYLQMISLKPEDTAVYYCNADVHNRGWPYDYWGQGTQVTVSS | low polyreactivity
42 | QVQLVESGGGLVQAGGSLRLSCAASGSTFGHYAMGWYRPAPGKERELVAGITDTDNHELRRLCEGRFTISRDNAKNTVYLQMNSLKPEDTAVYYCIADDTYYPLGGITGYDDWGQGTQVTVSS | low polyreactivity
43 | QVQLVESGGGLVQAGGSLRLSCAASGSIFIDNAMGWYIQAPGKEREFVAAISKSGTSTYYADSVNGRFTISRDNAMNAVDLQMNSLKPEDTAVYYCAVRRPRPYSNYYYWGQGTQVTVSS | high polyreactivity
